{"source": "patent US20210348149A1", "about": "(Alexion, published 2021)", "binders": {"B1": {"name": "soybean trypsin inhibitor (STI), Kunitz trypsin inhibitor (21 kDa; pI=4.5) extracted from whole soybean or flour (other, soybean (Glycine max), UniProt P01070 25-205, looked up)", "chain": "DFVLDNEGNPLENGGTYYILSDITAFGGIRAAPTGNERCPLTVVQSRNELDKGIGTIISSPYRIRFIAEGHPLSLKFDSFAVIMLCVGIPTEWSVVEDLPEGPAVKIGENKDAMDGWFRLERVSDDEFNNYKLVFCPQQAEDDKCGDIGISIDHDDGTRRLVVSKNKPLVVQFQKLDKESL", "notes": "also called STI ligand"}}, "biological_target": "T1, r-Antidote (two-chain polypeptide, SEQ ID NO: 3); processed product of the precursor SEQ ID NO: 2 after … (human, UniProt P00742 80-179); P00742 235-488, in certain production batches: glycosylation at Thr249; in certain production batches: glycosylation at Ser56, Ser72, Ser76 and Thr82; (3R)-3-hydroxyAsp at Asp29)", "T1 construct": "Light and heavy chain are joined by a disulfide bond, Cys98 of the light chain to Cys108 of the heavy chain; also called fXa antidote; fXa derivative", "T1 sequence (P00742 other isoform, or with tags, fused parts or gaps limits assumed, chain 1 of 2)": "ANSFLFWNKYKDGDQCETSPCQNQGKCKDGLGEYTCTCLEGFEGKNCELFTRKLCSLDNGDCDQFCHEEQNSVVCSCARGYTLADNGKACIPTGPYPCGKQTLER", "T1 sequence (P00742 235-488 S419A limits assumed, chain 2 of 2)": "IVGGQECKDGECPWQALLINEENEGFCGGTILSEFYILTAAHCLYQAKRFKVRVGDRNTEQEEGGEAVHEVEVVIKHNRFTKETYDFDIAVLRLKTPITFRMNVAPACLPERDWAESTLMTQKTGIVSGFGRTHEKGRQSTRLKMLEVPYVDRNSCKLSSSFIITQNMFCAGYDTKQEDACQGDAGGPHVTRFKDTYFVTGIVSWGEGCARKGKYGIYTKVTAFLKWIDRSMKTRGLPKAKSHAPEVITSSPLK", "assay": "affinity chromatography with immobilised STI ligand (Example 2)", "experimental": "An affinity chromatograph was developed for high-volume extraction of the antidote. The affinity ligand included Kunitz trypsin inhibitor (21 kDa; pI=4.5) extracted from whole soybean or flour. The soybean trypsin inhibitor (STI) forms 1:1 complex with the antidote. A non-competitive inhibitor elution condition was identified for scalability and compatibility, which included 25 mM Na-acetate, 1M Arginine, at pH 5.2.\nAffinity column chromatography was performed using Capto STI resin at ambient temperature. During the load phase, the product bound to the resin while contaminants flew through. The product was recovered by disrupting protein interactions with a high concentration of arginine in the elution buffer. Prior to use, the column was rinsed with water for injection (WFI), cleaned with 100 mM Phosphoric Acid pH 3.0, and rinsed with WFI. The column was initially pre-equilibrated with pre-equilibration buffer (20 mM Tris-HCl, pH 7.4), then equilibrated with equilibration buffer (20 mM Tris-HCl, 200 mM NaCl, pH 7.4), and once the pH and conductivity of the column were within specification, it was loaded with Triton-X 100 treated clarified harvest (HCCF). Each cycle of HCCF material was transferred from its viral inactivation hold tank directly to the column."}
{"binder": "B1", "values": [{"measurement": "binding result", "value": "binds"}]}
